The RNAGym collection of RNA variant scans (doi:10.7554/elife.90254)

B1: LINE1-mini (parent)
chain: GGCAGAGCUCAACACAGCGUGGCAAAGUGGCUGUGGCUAGACUGCC

Variants of: B1
Test: self-cleavage, relative activity (ratio to wild type); higher = more cleavage; in vitro, sequencing; the parent is a self-cleaving ribozyme

| Variant | self-cleavage |
| --- | --- |
| G5U U34C | 0.07 |
| G5U U34G | 0.04 |
| G5U U34A | 0.04 |
| A6G G22A | 0.11 |
| A6G G22C | 0.07 |
| A6G G22U | 0.12 |
| A6C C13G | 0.15 |
| A6C C13A | 0.12 |
| A6C C13U | 0.14 |
| A6C A12G | 0.04 |
| A6C A12U | 0.16 |
| A6C A12C | 0.06 |
| A6U A26C | 0.56 |
| A6U A26G | 0.31 |
| A6U A26U | 0.85 |
| A6G C37U | 0.03 |
| A6G C37A | 0.05 |
| A6G C37G | 0.07 |
| A6C G33U | 0.09 |
| A6C G33C | 0.07 |
| A6C G33A | 0.06 |
| A6U C10U | 0.12 |
| A6U C10A | 0.07 |
| A6U C10G | 0.06 |

| Variant | self-cleavage |
| --- | --- |
| A6C A39U | 0.68 |
| A6C A39G | 0.1 |
| A6C A39C | 0.23 |
| A6G A25U | 0.1 |
| A6G A25G | 0.07 |
| A6G A25C | 0.1 |
| A6G G40C | 0.05 |
| A6G G40A | 0.1 |
| A6G G40U | 0.1 |
| A6C G17U | 0.11 |
| A6C G17A | 0.17 |
| A6C G17C | 1.47 |
| A6C G40C | 0.1 |
| A6C G40U | 0.15 |
| A6C G40A | 0.11 |
| G5U G30C | 0.05 |
| G5U G30U | 0.26 |
| G5U G30A | 0.18 |
| A6G C45G | 0.18 |
| A6G C45A | 0.15 |
| A6G C45U | 0.11 |
| A6U A11U | 0.09 |
| A6U A11C | 0.06 |
| A6U A11G | 0.04 |

| Variant | self-cleavage |
| --- | --- |
| A6G U20G | 0.13 |
| A6G U20C | 0.1 |
| A6G U20A | 0.04 |
| A6G G17A | 0.09 |
| A6G G17U | 0.04 |
| A6G G17C | 0.09 |
| A6C U32G | 0.05 |
| A6C U32A | 0.03 |
| A6C U32C | 0.05 |
| A6G G33U | 0.07 |
| A6G G33C | 0.03 |
| A6G G33A | 0.06 |
| A6G G44C | 0.14 |
| A6G G44U | 0.13 |
| A6G G44A | 0.46 |
| A6C G44C | 0.24 |
| A6C G44U | 0.18 |
| A6C G44A | 0.22 |
| A6C A16G | 0.22 |
| A6C A16U | 0.09 |
| A6C A16C | 0.1 |
| A6G U34A | 0.04 |
| A6G U34G | 0.04 |
| A6G U34C | 0.09 |

| Variant | self-cleavage |
| --- | --- |
| G5U G40U | 0.09 |
| G5U G40C | 0.05 |
| G5U G40A | 0.06 |
| A6G C23A | 0.11 |
| A6G C23U | 0.1 |
| A6G C23G | 0.1 |
| A6C A41G | 1.17 |
| A6C A41U | 0.1 |
| A6C A41C | 0.04 |
| A6G A14G | 0.07 |
| A6G A14U | 0.05 |
| A6G A14C | 0.14 |
| A6U A39C | 0.51 |
| A6U A39G | 0.04 |
| A6U A39U | 0.35 |
| A6C C46U | 0.89 |
| A6C C46A | 0.5 |
| A6C C46G | 0.46 |
| G5U G21A | 0.28 |
| G5U G21C | 0.09 |
| G5U G21U | 0.1 |
| A6C | 0.71 |
| A6G | 0.12 |
| A6U | 0.7 |

| Variant | self-cleavage |
| --- | --- |
| G5U G27A | 0.06 |
| G5U G27C | 0.05 |
| G5U G27U | 0.11 |
| A6C A24U | 1.07 |
| A6C A24G | 0.49 |
| A6C A24C | 0.41 |
| A6G G7A | 0.11 |
| A6G G7C | 0.14 |
| A6G G7U | 0.05 |
| A6G C46U | 0.09 |
| A6G C46A | 0.13 |
| A6G C46G | 0.08 |
| A6C G19U | 0.56 |
| A6C G19A | 1.02 |
| A6C G19C | 0.3 |
| G5U G35C | 0.06 |
| G5U G35A | 0.08 |
| G5U G35U | 0.15 |
| A6C G22C | 0.65 |
| A6C G22U | 0.57 |
| A6C G22A | 0.66 |
| A6C U28A | 0.64 |
| A6C U28G | 0.2 |
| A6C U28C | 0.36 |

| Variant | self-cleavage |
| --- | --- |
| A6U A24G | 0.94 |
| A6U A24U | 1.6 |
| A6U A24C | 1.21 |
| A6G U43C | 0.09 |
| A6G U43G | 0 |
| A6G U43A | 0.15 |
| A6C U43C | 0.08 |
| A6C U43G | 0.03 |
| A6C U43A | 0.13 |
| G5U U32G | 0.09 |
| G5U U32A | 0.07 |
| G5U U32C | 0.07 |
| A6C C31G | 0.09 |
| A6C C31U | 0.22 |
| A6C C31A | 0.11 |
| A6G U9C | 0.02 |
| A6G U9A | 0.12 |
| A6G U9G | 0.17 |
| A6U A16C | 0.09 |
| A6U A16U | 0.11 |
| A6U A16G | 0.14 |
| A6G C8G | 0.08 |
| A6G C8U | 0.22 |
| A6G C8A | 0.15 |

| Variant | self-cleavage |
| --- | --- |
| A6U C13A | 0.2 |
| A6U C13U | 0.11 |
| A6U C13G | 0.28 |
| A6C U34A | 0.05 |
| A6C U34G | 0.25 |
| A6C U34C | 0.11 |
| A6G A24G | 0.12 |
| A6G A24U | 0.19 |
| A6G A24C | 0.13 |
| A6G G35U | 0.08 |
| A6G G35A | 0.05 |
| A6G G35C | 0.12 |
| A6C C10A | 0.11 |
| A6C C10G | 0.05 |
| A6C C10U | 0.15 |
| A6C C45A | 0.47 |
| A6C C45U | 0.7 |
| A6C C45G | 0.09 |
| G5U U28G | 0.09 |
| G5U U28C | 0.09 |
| G5U U28A | 0.06 |
| A6G A16G | 0.12 |
| A6G A16U | 0.06 |
